# Results: the supplement of paper PMC10724198
# ± gives the standard deviation of the averaged measurements.
# Test system: Saccharomyces cerevisiae
# Experiment: protein stability index of tFT-peptide fusion (C-terminal peptide) (PSI (0-1 scale)); higher = more stable (slower turnover)
# Conditions: genetic background: wild type; temperature: 30 C
# Protocol: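 Multiplexed protein stability (MPS) profiling in S. cerevisiae. Random 12-aa peptides (tFT-X12 library) are fused to the C-terminus of a sfGFP-mCherry tandem fluorescent timer, after mCherry and a GGGS linker. Cells are FACS-sorted into 8 mCherry/sfGFP bins and deep-sequenced. The protein stability index (PSI) is the read-weighted bin average, scaled from 0 (unstable) to 1 (stable). Only peptides with >10 reads are reported; cells were grown at 30 °C in SC-His with glucose.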
# 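Also: PSI is a weighted mean of sequencing reads over stability bins, variants kept only with over 10 reads, mCherry proximal and sfGFP distal, peptide attached via GGGS linker.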
row,Sequence,protein stability index
1,RPGNGLTLPTAS,0.622 ± 0.072
2,PQRPRTLPPLTP,0.7236 ± 0.0015
3,IHLCPPPALRES,0.703 ± 0.0083
4,YFALPPSAHRHQ,0.693 ± 0.059
5,PLPCSPRLRLSF,0.646 ± 0.036
6,SVFECKYNTLGR,0.671 ± 0.017
7,LISHHSEFPVIL,0.744 ± 0.031
8,TGDIKYYKDKLE,0.639 ± 0.0097
9,VVVSGGGQGFWL,0.757 ± 0.064
10,KQKRKENIHIIK,0.776 ± 0.033
11,LVLHWPSPREAL,0.713 ± 0.071
12,LSGRQKLNMSIR,0.682 ± 0.029
13,GFCRWVRRDDCI,0.693 ± 0.032
14,IRILDARYLSIS,0.62 ± 0.12
15,SSNLVDTCSPIG,0.778 ± 0.081
16,YSGSYIEPREIR,0.626 ± 0.087
17,QHTDNLLTHLMG,0.6551 ± 0.0028
18,RHSPGPLLTPAP,0.712 ± 0.045
19,CPSRPPALPPPE,0.66835 ± 0.00049
20,FAISTSMVNLAM,0.681 ± 0.039
21,EEHVIQNIKCKN,0.738 ± 0.037
22,RSPQPPPSPSSG,0.692 ± 0.027
23,SRFWLCGKCLWH,0.7051 ± 0.0045
24,NKPRSYRVDKRQ,0.615 ± 0.015
25,TSHMKASANDTL,0.687 ± 0.11

row,Sequence,protein stability index
1,IPLCRVAGPKLK,0.591 ± 0.048
2,PPHPDTSPSFPP,0.6787 ± 0.0022
3,PPLRLRLPPAVL,0.629 ± 0.095
4,CNFGLHSCALLY,0.723 ± 0.033
5,KRKETIRKKNQT,0.734 ± 0.05
6,VGRWCCELVWGV,0.645 ± 0.022
7,SSLPPSDQPPSP,0.733 ± 0.071
8,AHPGHRPSHPPY,0.727 ± 0.08
9,YVKEEEKKKESK,0.681 ± 0.079
10,CVLYQLPPAYSF,0.643 ± 0.029
11,TPTDPLSLYAFP,0.69 ± 0.013
12,VGKRGQRRVARL,0.692 ± 0.021
13,AAWSITFEVLSI,0.59 ± 0.026
14,ERKGIIIGHSHS,0.71 ± 0.037
15,PPPPTPRPPSSL,0.728 ± 0.061
16,EGWLVDVDRIVG,0.741 ± 0.076
17,GFVVCVFPLLLP,0.563 ± 0.029
18,LKHHDSNESASR,0.651 ± 0.1
19,PRSYPPSPPPPS,0.704 ± 0.042
20,GVNMGKIYKIRN,0.649 ± 0.03
21,NPVYSFRAHRLG,0.5128 ± 0.0037
22,FPPPPYPEFYPC,0.798 ± 0.077
23,LFSSQAGGRLES,0.67 ± 0.019
24,SIKKQLQKKKQK,0.743 ± 0.1
25,AVGMVLEYFTLG,0.671 ± 0.029

row,Sequence,protein stability index
1,PGIHRPLAVEDL,0.676 ± 0.032
2,SPIRLPATSPSR,0.639 ± 0.046
3,SQPRRELGRPRG,0.662 ± 0.022
4,LPTPSQYFFPPP,0.736 ± 0.018
5,LAPRPPAPTPTL,0.603 ± 0.053
6,WAAWYPGEHPVP,0.755 ± 0.12
7,TLRRPMQVPLGH,0.633 ± 0.04
8,SVFPSAVCSLGC,0.6895 ± 0.005
9,FLGEKTCRSIIS,0.646 ± 0.083
10,AQPDAFAGVWGV,0.7177 ± 0.0028
11,SAVVPACIPKCE,0.694 ± 0.035
12,GVGQGGPVVVGR,0.665 ± 0.024
13,AGCVAVYGVFLG,0.619 ± 0.13
14,RYGTGQLDYCFI,0.717 ± 0.018
15,PPFPPPLLPPSP,0.732 ± 0.036
16,LASVYLLLRFSE,0.5266 ± 0.0012
17,PRSAPSPRRSPA,0.757 ± 0.034
18,RNLFRRAPNQGL,0.723 ± 0.043
19,SPLSSSDGSAAI,0.73 ± 0.022
20,ELRTKRGASNPR,0.7097 ± 0.0021
21,SSPPPRSLPSPP,0.714 ± 0.046
22,FFTDACQRVMKG,0.633 ± 0.049
23,HWYLRCAVCEGV,0.651 ± 0.022
24,FTQVIQQQRRVV,0.627 ± 0.067
25,TSLYGRDEETKV,0.599 ± 0.077

row,Sequence,protein stability index
1,SSDSVPIVVGVV,0.66 ± 0.056
2,LLSVPCPLVCRL,0.699 ± 0.037
3,RVHRETLLPTGQ,0.644 ± 0.036
4,SPPRPPAPPSPT,0.701 ± 0.014
5,YSGSKGVWTRWS,0.687 ± 0.02
6,PPDPNCLPKQTS,0.752 ± 0.058
7,PPPPPPPCFFPP,0.715 ± 0.048
8,FTWFGAFLSCFV,0.61 ± 0.069
9,SLTENRGRKKKK,0.664 ± 0.0082
10,PNCAPLTAPRRR,0.7159 ± 0.0069
11,AWGGGSVVFWAV,0.692 ± 0.055
12,PPRCPLPPLSPP,0.701 ± 0.11
13,WVGCALEQGGAV,0.71 ± 0.0019
14,PLCPPYPPGRVP,0.6841 ± 0.0021
15,PFCYALPWAPPR,0.644 ± 0.076
16,KKEIGGSNWNKK,0.632 ± 0.09
17,GGGAFVGLDFGG,0.684 ± 0.0071
18,TVGKGCGGAEGG,0.6439 ± 0.0029
19,VPSLPSPCSSCA,0.667 ± 0.046
20,DCSCRRSISVLV,0.54 ± 0.024
21,RCLSVLGLFVGW,0.634 ± 0.033
22,VFKNRWLGGEKV,0.69 ± 0.012
23,LFFNLLLFFSFI,0.488 ± 0.018
